In PMC7864067:

Biological target: PFN2 (endogenous, isoform not told apart) (human (endogenous in HAP1)) (UniProt P35080)
Sequence of UniProt P35080 (P35080 whole entry, canonical isoform): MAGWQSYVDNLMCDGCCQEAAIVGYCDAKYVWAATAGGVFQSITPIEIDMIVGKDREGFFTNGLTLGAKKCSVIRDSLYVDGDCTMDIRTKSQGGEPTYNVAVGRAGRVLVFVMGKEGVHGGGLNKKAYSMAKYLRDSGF

Q: Which results are given for V5-NAA80 (M23L) Δ238-284 (enzyme)?
A: actin reacetylation assay in HAP1 NAA80-KO cells, 8-14 h after transfection: Ac-β-actin signal normalised to V5, compared with cells transfected with NAA80-WT, at 14 h: 64%; actin reacetylation assay in HAP1 NAA80-KO cells, 8-14 h after transfection: Ac-γ-actin signal normalised to V5, compared with cells transfected with NAA80-WT, at 14 h: 62%
